Measured values published in the Immune Epitope Database (IEDB).

What was measured:
HLA-A*02:01 [1] = assay: IEDB peptide-MHC binding, purified MHC/competitive/fluorescence; filed as Kd, often an IC50 or EC50 that approximates it; ≥ and ≤ were set here for values at or beyond the usual limits of such assays
HLA-A*02:03 = assay: as above
HLA-A*02:12 = assay: as above
HLA-A*02:16 = assay: as above
HLA-A*02:19 = assay: as above
HLA-A*03:01 [2] = assay: as above
HLA-A*24:03 = assay: as above
HLA-A*26:01 = assay: as above
HLA-A*68:02 = assay: as above
HLA-A*69:01 = assay: as above
HLA-B*15:01 [3] = assay: as above
HLA-B*15:17 [4] = assay: as above; conditions: source organism: Burkholderia pseudomallei K96243
HLA-B*18:01 = assay: as above
HLA-B*27:03 = assay: as above
HLA-B*39:01 = assay: as above
HLA-B*46:01 [5] = assay: as above
HLA-B*51:01 [6] = assay: as above
HLA-B*57:01 [7] = assay: as above
HLA-A*23:01 = assay: as above
HLA-A*29:02 = assay: as above
HLA-B*07:02 = assay: as above; conditions: source organism: Yersinia pestis Nepal516
HLA-B*08:01 = assay: as above
HLA-A*02:11 = assay: as above
HLA-A*31:01 [8] = assay: as above; conditions: source organism: Entamoeba histolytica HM-1:IMSS
HLA-A*01:01 = assay: IEDB peptide-MHC binding, purified MHC/direct/fluorescence; filed as Kd, often an IC50 or EC50 that approximates it; ≥ and ≤ were set here for values at or beyond the usual limits of such assays; conditions: source organism: Mycobacterium tuberculosis
HLA-A*02:01 [9] = assay: as above; conditions: source organism: Mycobacterium tuberculosis
HLA-A*03:01 [10] = assay: as above; conditions: source organism: Mycobacterium tuberculosis
HLA-A*31:01 [11] = assay: as above; conditions: source organism: Mycobacterium tuberculosis
HLA-B*15:01 [12] = assay: as above; conditions: source organism: Mycobacterium tuberculosis
HLA-B*15:09 = assay: as above; conditions: source organism: Mycobacterium tuberculosis str. Haarlem
HLA-B*15:17 [13] = assay: as above; conditions: source organism: Mycobacterium tuberculosis
HLA-B*27:05 = assay: as above; conditions: source organism: Mycobacterium tuberculosis
HLA-B*40:01 = assay: as above; conditions: source organism: Mycobacterium tuberculosis
HLA-B*46:01 [14] = assay: as above; conditions: source organism: Mycobacterium tuberculosis
HLA-B*48:01 = assay: as above; conditions: source organism: Mycobacterium tuberculosis
HLA-B*51:01 [15] = assay: as above; conditions: source organism: Mycobacterium tuberculosis
HLA-B*57:01 [16] = assay: as above; conditions: source organism: Mycobacterium tuberculosis
HLA-B*58:01 = assay: as above; conditions: source organism: Mycobacterium tuberculosis
HLA-A*11:01 = assay: IEDB peptide-MHC binding, purified MHC/competitive/fluorescence; filed as Kd, often an IC50 or EC50 that approximates it; ≥ and ≤ were set here for values at or beyond the usual limits of such assays; conditions: source organism: Mycobacterium tuberculosis variant bovis BCG str. Pasteur 1173P2
HLA-A*30:01 = assay: as above; conditions: source organism: Mycobacterium tuberculosis variant bovis BCG str. Pasteur 1173P2
[17] = source organism: Burkholderia pseudomallei K96243
[18] = source organism: Plasmodium yoelii yoelii
[19] = source organism: Yersinia pestis Nepal516
[20] = source organism: Human immunodeficiency virus 1
[21] = source organism: Entamoeba histolytica HM-1:IMSS
[22] = source organism: Mycobacterium tuberculosis variant bovis BCG str. Pasteur 1173P2
[23] = source organism: Cryptosporidium parvum Iowa II

SELTVSPPD
Kd (HLA-A*02:01 [1]; [17]): ≥ 20 µM | Kd (HLA-A*02:03; [17]): ≥ 20 µM | Kd (HLA-A*02:12; [17]): ≥ 20 µM | Kd (HLA-A*02:16; [17]): ≥ 20 µM | Kd (HLA-A*02:19; [17]): ≥ 20 µM | Kd (HLA-A*03:01 [2]; [17]): ≥ 20 µM | Kd (HLA-A*24:03; [17]): ≥ 20 µM | Kd (HLA-A*26:01; [17]): ≥ 20 µM | Kd (HLA-A*68:02; [17]): ≥ 20 µM | Kd (HLA-A*69:01; [17]): ≥ 20 µM | Kd (HLA-B*15:01 [3]; [17]): ≥ 20 µM | Kd (HLA-B*15:17 [4]): ≥ 20 µM | Kd (HLA-B*18:01; [17]): 0.845 µM | Kd (HLA-B*27:03; [17]): ≥ 20 µM | Kd (HLA-B*39:01; [17]): ≥ 20 µM | Kd (HLA-B*46:01 [5]; [17]): ≥ 20 µM | Kd (HLA-B*51:01 [6]; [17]): ≥ 20 µM | Kd (HLA-B*57:01 [7]; [17]): ≥ 20 µM

KPPRGVLLY
Kd (HLA-A*02:01 [1]; [18]): ≥ 20 µM | Kd (HLA-A*02:03; [18]): ≥ 20 µM | Kd (HLA-A*02:12; [18]): ≥ 20 µM | Kd (HLA-A*02:19; [18]): ≥ 20 µM | Kd (HLA-A*03:01 [2]; [18]): ≥ 20 µM | Kd (HLA-A*23:01; [18]): ≥ 20 µM | Kd (HLA-A*24:03; [18]): ≥ 20 µM | Kd (HLA-A*26:01; [18]): ≥ 20 µM | Kd (HLA-A*29:02; [18]): 0.115 µM | Kd (HLA-A*68:02; [18]): ≥ 20 µM | Kd (HLA-A*69:01; [18]): ≥ 20 µM | Kd (HLA-B*15:01 [3]; [18]): ≥ 20 µM | Kd (HLA-B*18:01; [18]): ≥ 20 µM | Kd (HLA-B*27:03; [18]): ≥ 20 µM | Kd (HLA-B*39:01; [18]): ≥ 20 µM | Kd (HLA-B*46:01 [5]; [18]): ≥ 20 µM | Kd (HLA-B*51:01 [6]; [18]): ≥ 20 µM | Kd (HLA-B*57:01 [7]; [18]): ≥ 20 µM

MPLKVQVCI
Kd (HLA-B*07:02): 0.304 µM | Kd (HLA-B*08:01; [19]): 0.816 µM | Kd (HLA-B*51:01 [6]; [19]): 1.27 µM

GLADQLIHM
Kd (HLA-A*02:01 [1]; [20]): 0.0837 µM | Kd (HLA-A*02:03; [20]): 0.0024 µM | Kd (HLA-A*02:11; [20]): 0.0008 µM | Kd (HLA-A*02:19; [20]): 0.155 µM | Kd (HLA-A*69:01; [20]): ≥ 20 µM

RSLVCLAPK
Kd (HLA-A*02:01 [1]; [21]): ≥ 20 µM | Kd (HLA-A*02:03; [21]): ≥ 20 µM | Kd (HLA-A*02:11; [21]): ≥ 20 µM | Kd (HLA-A*02:12; [21]): ≥ 20 µM | Kd (HLA-A*02:16; [21]): ≥ 20 µM | Kd (HLA-A*02:19; [21]): ≥ 20 µM | Kd (HLA-A*23:01; [21]): ≥ 20 µM | Kd (HLA-A*24:03; [21]): ≥ 20 µM | Kd (HLA-A*26:01; [21]): ≥ 20 µM | Kd (HLA-A*29:02; [21]): ≥ 20 µM | Kd (HLA-A*31:01 [8]): 0.0465 µM | Kd (HLA-A*68:02; [21]): ≥ 20 µM | Kd (HLA-A*69:01; [21]): ≥ 20 µM | Kd (HLA-B*15:01 [3]; [21]): ≥ 20 µM | Kd (HLA-B*18:01; [21]): ≥ 20 µM | Kd (HLA-B*27:03; [21]): ≥ 20 µM | Kd (HLA-B*39:01; [21]): ≥ 20 µM | Kd (HLA-B*46:01 [5]; [21]): ≥ 20 µM | Kd (HLA-B*51:01 [6]; [21]): ≥ 20 µM | Kd (HLA-B*57:01 [7]; [21]): ≥ 20 µM

YPARVKCAL
Kd (HLA-A*01:01): ≥ 20 µM | Kd (HLA-A*02:01 [9]): ≥ 20 µM | Kd (HLA-A*03:01 [10]): ≥ 20 µM | Kd (HLA-A*31:01 [11]): ≥ 20 µM | Kd (HLA-B*15:01 [12]): ≥ 20 µM | Kd (HLA-B*15:09): 1.09 µM | Kd (HLA-B*15:17 [13]): ≥ 20 µM | Kd (HLA-B*27:05): ≥ 20 µM | Kd (HLA-B*40:01): ≥ 20 µM | Kd (HLA-B*46:01 [14]): ≥ 20 µM | Kd (HLA-B*48:01): ≥ 20 µM | Kd (HLA-B*51:01 [15]): ≥ 20 µM | Kd (HLA-B*57:01 [16]): ≥ 20 µM | Kd (HLA-B*58:01): ≥ 20 µM | Kd (HLA-A*11:01): ≥ 20 µM | Kd (HLA-A*30:01): 2.54 µM | Kd (HLA-A*69:01; [22]): ≥ 20 µM | Kd (HLA-B*08:01; [22]): 0.097 µM | Kd (HLA-B*39:01; [22]): 0.0229 µM

LTAPCDIYV
Kd (HLA-A*02:01 [1]; [23]): ≥ 20 µM | Kd (HLA-A*02:11; [23]): ≥ 20 µM | Kd (HLA-A*02:16; [23]): 0.0005 µM | Kd (HLA-A*02:19; [23]): ≥ 20 µM | Kd (HLA-A*03:01 [2]; [23]): ≥ 20 µM | Kd (HLA-A*23:01; [23]): ≥ 20 µM | Kd (HLA-A*24:03; [23]): ≥ 20 µM | Kd (HLA-A*26:01; [23]): ≥ 20 µM | Kd (HLA-A*29:02; [23]): ≥ 20 µM | Kd (HLA-B*15:01 [3]; [23]): ≥ 20 µM | Kd (HLA-B*18:01; [23]): ≥ 20 µM | Kd (HLA-B*27:03; [23]): ≥ 20 µM | Kd (HLA-B*39:01; [23]): ≥ 20 µM | Kd (HLA-B*46:01 [5]; [23]): ≥ 20 µM | Kd (HLA-B*51:01 [6]; [23]): ≥ 20 µM | Kd (HLA-B*57:01 [7]; [23]): ≥ 20 µM
